In the Immune Epitope Database (IEDB) one finds Kd data, which are given here for 17 sequences.

Test [1] has as its target HLA-A*26:01. Description: IEDB peptide-MHC binding, purified MHC/competitive/radioactivity; filed as Kd, often an IC50 or EC50 that approximates it; ≥ and ≤ were set here for values at or beyond the usual limits of such assays.
For test [2], the target named is HLA-A*24:02. The description is as above.
For test [3], the target named is HLA-A*30:02. The description is as above.
For test [4], the target named is HLA-A*23:01. The description is as above.
In test [5] the target is HLA-A*01:01. The description is as above.
For test [6], the target named is HLA-A*29:02. Described as above.
Test [7] concerns the target HLA-B*53:01. The test is described as above.
Test [8] deals with HLA-B*58:01. The test can be described thus: IEDB peptide-MHC binding, purified MHC/direct/fluorescence; filed as Kd, often an IC50 or EC50 that approximates it; ≥ and ≤ were set here for values at or beyond the usual limits of such assays. The conditions noted are these: source organism: SARS-CoV1.
The target in test [9] is HLA-A*11:01. The test is described as above. The conditions noted are these: source organism: SARS-CoV1.
The target of test [10] is HLA-A*03:01. The test is described as above. The conditions noted are these: source organism: SARS-CoV1.
For test [11], the target named is HLA-A*01:01. The test is described as above. The conditions noted are these: source organism: SARS-CoV1.
For test [12], the target named is HLA-B*15:01. The test is described as above. The conditions noted are these: source organism: SARS-CoV1.
Setting [13] is: source organism: Mammarenavirus choriomeningitidis.
Setting [14] is: source organism: SARS coronavirus Tor2.
[15] abbreviates: source organism: Mammarenavirus brazilense.
The mark [16] stands for this setting: source organism: Lassa virus Josiah.
[17] abbreviates: source organism: Mammarenavirus whitewaterense.
The mark [18] stands for this setting: source organism: Dengue virus 1 Brazil/97-11/1997.
Where [19] appears, read: source organism: Mammarenavirus guanaritoense.

The term Kd denotes the equilibrium constant for the complex coming apart. As for VKMPTHRHI, the Kd was no less than 77900 nM in [1] (setting [13]); no less than 77500 nM in [2] (setting [13]); no less than 76900 nM in test [3] (setting [13]); no less than 77700 nM in [4] (setting [13]); no less than 78100 nM in [5] (setting [13]); no less than 78900 nM in test [6] (setting [13]).

For the sequence FSGALDTTSY, the equilibrium dissociation constant (Kd) in [1] (setting [14]) is 9150 nM; in [2] (setting [14]), no less than 70300 nM; in test [3] (setting [14]), 451 nM; in test [4] (setting [14]) it was no less than 70000 nM; in test [5] (setting [14]), 1310 nM; in [6] (setting [14]) it was 678 nM.

Take MFKTKGRYNL: the Kd in [2] (setting [15]) was 7170 nM; in test [4] (setting [15]), 2070 nM; in test [6] (setting [15]), 68.9 nM.

Regarding LATGPITTLW, the Kd in test [7] (source organism: Dengue virus 3 Martinique/1243/1999) came out at 78.6 nM.

Consider KSFEIDKGIY, for which the Kd in [1] (setting [14]) is 5510 nM; in test [2] (setting [14]), no less than 70300 nM; in [3] (setting [14]), 4.75 nM; in test [4] (setting [14]), no less than 70000 nM; in test [5] (setting [14]), 780 nM; in test [6] (setting [14]), 984 nM.

Take SDAHKKNLY: the dissociation constant (Kd) is no less than 77900 nM in test [1] (setting [16]); no less than 77500 nM in test [2] (setting [16]); 1640 nM in test [3] (setting [16]); no less than 77700 nM in test [4] (setting [16]); 1120 nM in test [5] (setting [16]); no less than 69700 nM in test [6] (setting [16]).

Consider AYTSSDDEI, for which the dissociation constant (Kd) in [2] (setting [17]) turned out to be 4870 nM; in [4] (setting [17]), 1580 nM; in test [6] (setting [17]), 1590 nM.

LTDDMIAAY: the Kd was 1800 nM in test [1] (setting [14]); no less than 77600 nM in test [2] (setting [14]); 326 nM in test [3] (setting [14]); no less than 77800 nM in [4] (setting [14]); 529 nM in [6] (setting [14]); 6940 nM in test [8]. The dissociation constant (Kd) amounted to 4050 nM in test [9], 19300 nM in test [10], 7 nM in test [11] and 636 nM in test [12].

On to FYFTNDVSFL, for which the equilibrium dissociation constant (Kd) is 9340 nM in test [1] (setting [14]); 47.5 nM in test [2] (setting [14]); no less than 34200 nM in test [3] (setting [14]); 59.2 nM in test [4] (setting [14]); 2000 nM in [5] (setting [14]); 384 nM in test [6] (setting [14]).

Regarding FPQSNAVIQ, the Kd in test [7] (setting [18]) stood at 527 nM.

WCSQTDYQYL: the dissociation constant Kd is no less than 69700 nM in test [1] (setting [13]); 15000 nM in [2] (setting [13]); 10600 nM in test [3] (setting [13]); 10800 nM in [4] (setting [13]); 13100 nM in test [5] (setting [13]); 9280 nM in test [6] (setting [13]).

RYNLPTMCDI: the Kd in [1] (setting [14]) was no less than 69700 nM; in test [2] (setting [14]), 601 nM; in test [3] (setting [14]), 90 nM; in [4] (setting [14]), 180 nM; in test [5] (setting [14]) it was no less than 70400 nM; in [6] (setting [14]) it was 5260 nM.

As for LLEKCDLQNY, the Kd is no less than 82800 nM in test [1] (setting [14]); no less than 70300 nM in test [2] (setting [14]); 7030 nM in test [3] (setting [14]); no less than 70000 nM in test [4] (setting [14]); 70.7 nM in test [5] (setting [14]); 3260 nM in test [6] (setting [14]).

VWKSGILQLF: the values for the Kd in test [2] (setting [19]), in [4] (setting [19]) and in [6] (setting [19]) were 62.6 nM, 16.5 nM and 2560 nM, respectively.

Take LTNDNTSRY: the Kd in test [1] (setting [14]) is 6.48 nM; in [2] (setting [14]) it was no less than 77600 nM; in test [3] (setting [14]), 8.9 nM; in [4] (setting [14]), no less than 77800 nM; in [5] (setting [14]) it was 1.59 nM; in [6] (setting [14]), 31.6 nM.

On to VFQSATKII, for which the Kd in test [1] (setting [14]) was no less than 43600 nM; in [2] (setting [14]) it was 0.211 nM; in [3] (setting [14]) it was 199 nM; in test [4] (setting [14]) it was 0.162 nM; in [5] (setting [14]), no less than 59200 nM; in test [6] (setting [14]) it was 0.0425 nM.

Turning to LATGPLTTLW, in test [7] (setting [18]), the Kd came to 98.4 nM.
